For assay [1], the target named is Psu (polarity suppression protein), wild type, non-His-tagged (bacteriophage P4) (UniProt P05460). Description: cross-linking.
Assay [2] has the same target. The assay can be described thus: SEC. Background: Size exclusion chromatography separates by hydrodynamic size, large species first.
The target in assay [3] is Psu M6 mutant (P169V) (bacteriophage P4) (UniProt P05460). The assay can be described thus: cross-linking.
Assay [4] has as its target Δ-CTD10 Psu, His-tagged (pRS459, pET28b) (bacteriophage P4) (UniProt P05460). The assay can be described thus: cross-linking.

A word on the stoichiometry N: it is a count of units in the complex or per binding partner.

In the case of “Psu (polarity suppression protein), wild type, non-His-tagged (from UniProt P05460 1-190) (natural protein)”, the stoichiometry N in assay [1] stood at 2; in assay [2], 3. Substance “Psu M6 mutant (P169V) (from UniProt P05460 1-190) (natural protein)” had a stoichiometry N in assay [3] of 2. As for “Δ-CTD10 Psu, His-tagged (pRS459, pET28b) (from UniProt P05460 1-180) (domain or fragment)”, in assay [4], the stoichiometry N was 2.

These data come from article PMC1950596.
